# Source: patent US20160279215A1, “NOVEL PEPTIDES AND COMBINATION OF PEPTIDES FOR USE IN IMMUNOTHERAPY AGAINST VARIOUS TUMORS” (immatics biotechnologies GmbH, priority 2015, published 2016)
# B1: SLLDYEVSI (peptide)
# peptide: SLLDYEVSI
# B2: SLLDLVQSL (peptide)
# peptide: SLLDLVQSL
# B3: IMPTFDLTKV (peptide)
# peptide: IMPTFDLTKV
# B4: KQFEGTVEI (peptide)
# peptide: KQFEGTVEI
# B5: VLLDMVHSL (peptide)
# peptide: VLLDMVHSL
# B6: MLWESIMRV (peptide)
# peptide: MLWESIMRV
# B7: GLQDGFQITV (peptide)
# peptide: GLQDGFQITV
# B8: SEWGSPHAAVP (peptide)
# peptide: SEWGSPHAAVP
# B9: AAIEIFEKV (peptide)
# peptide: AAIEIFEKV
# B10: YLILSSHQL (peptide)
# peptide: YLILSSHQL
# B11: KVWSDVTPL (peptide)
# peptide: KVWSDVTPL
# notes: also called MMP-002
# B12: LLFDWSGTGRADA (peptide)
# peptide: LLFDWSGTGRADA
# B13: RVIDDSLVVGV (peptide)
# peptide: RVIDDSLVVGV
# B14: ALAGIVTNV (peptide)
# peptide: ALAGIVTNV
# B15: SLADLSLLL (peptide)
# peptide: SLADLSLLL
# B16: FLMKNSDLYGA (peptide)
# peptide: FLMKNSDLYGA
# B17: ALINVLNAL (peptide)
# peptide: ALINVLNAL
# B18: ALHPVQFYL (peptide)
# peptide: ALHPVQFYL
# B19: LLTTVLINA (peptide)
# peptide: LLTTVLINA
# B20: RLYEEEIRI (peptide)
# peptide: RLYEEEIRI
# B21: KLLNMIFSI (peptide)
# peptide: KLLNMIFSI
# B22: ALLEQTGDMSL (peptide)
# peptide: ALLEQTGDMSL
# B23: KLVELEHTL (peptide)
# peptide: KLVELEHTL
# notes: also called CT83-001
# B24: GLLSALENV (peptide)
# peptide: GLLSALENV
# B25: GLLGNLLTSL (peptide)
# peptide: GLLGNLLTSL
# B26: LLWGNLPEI (peptide)
# peptide: LLWGNLPEI
# B27: ALSYILPYL (peptide)
# peptide: ALSYILPYL
# B28: ALSELERVL (peptide)
# peptide: ALSELERVL
# B29: ALFHMNILL (peptide)
# peptide: ALFHMNILL
# B30: LLWAPTAQA (peptide)
# peptide: LLWAPTAQA
# B31: MLIIRVPSV (peptide)
# peptide: MLIIRVPSV
# B32: GLAGDNIYL (peptide)
# peptide: GLAGDNIYL
# B33: FLISQTPLL (peptide)
# peptide: FLISQTPLL
# B34: KLQEEIPVL (peptide)
# peptide: KLQEEIPVL
# B35: YLYQILQGI (peptide)
# peptide: YLYQILQGI
# B36: LLWGHPRVALA (peptide)
# peptide: LLWGHPRVALA
# notes: also called MXRA5-003
# B37: ALADLSVAV (peptide)
# peptide: ALADLSVAV
# B38: TLQEWLTEV (peptide)
# peptide: TLQEWLTEV
# B39: LLGDSSFFL (peptide)
# peptide: LLGDSSFFL
# B40: ALFETLIQL (peptide)
# peptide: ALFETLIQL
# B41: KLFETVEEL (peptide)
# peptide: KLFETVEEL
# B42: KMSELQTYV (peptide)
# peptide: KMSELQTYV
# B43: LMYPYIYHV (peptide)
# peptide: LMYPYIYHV
# B44: LLDDIFIRL (peptide)
# peptide: LLDDIFIRL
# B45: ALLSPLSLA (peptide)
# peptide: ALLSPLSLA
# B46: YLDPLWHQL (peptide)
# peptide: YLDPLWHQL
# B47: LLWPSSVPA (peptide)
# peptide: LLWPSSVPA
# B48: RLIDIYKNV (peptide)
# peptide: RLIDIYKNV
# B49: SLSTELFKV (peptide)
# peptide: SLSTELFKV
# B50: QLGPVPVTI (peptide)
# peptide: QLGPVPVTI
# B51: YLMDDFSSL (peptide)
# peptide: YLMDDFSSL
# notes: also called COL6A3-015
# B52: SLFESLEYL (peptide)
# peptide: SLFESLEYL
# notes: also called ZFP42-001
# B53: VIFEGEPMYL (peptide)
# peptide: VIFEGEPMYL
# notes: also called HORMAD1-001
# B54: FLPQPVPLSV (peptide)
# peptide: FLPQPVPLSV
# B55: ILAVDGVLSV (peptide)
# peptide: ILAVDGVLSV
# B56: LMQDSRLYL (peptide)
# peptide: LMQDSRLYL
# B57: SLAGNLQEL (peptide)
# peptide: SLAGNLQEL
# B58: TLGEIIKGV (peptide)
# peptide: TLGEIIKGV
# B59: SLLELDGINLRL (peptide)
# peptide: SLLELDGINLRL
# B60: LVVDEGSLVSV (peptide)
# peptide: LVVDEGSLVSV
# notes: also called …
# B61: VIIKGLEEITV (peptide)
# peptide: VIIKGLEEITV
# B62: ALEEKLENV (peptide)
# peptide: ALEEKLENV
# B63: NVAEIVIHI (peptide)
# peptide: NVAEIVIHI
# B64: FLNDIFERI (peptide)
# peptide: FLNDIFERI
# B65: KLLAVIHEL (peptide)
# peptide: KLLAVIHEL
# notes: also called RAD54B-002
# B66: VIIQNLPAL (peptide)
# peptide: VIIQNLPAL
# B67: VLMQDSRLYL (peptide)
# peptide: VLMQDSRLYL
# Target: T1, HLA-A*02:01 (human)
# T1 construct: MHC monomers captured on streptavidin plates; the UV-sensitive peptide is cleaved and exchanged with the test peptide; also called peptide-receptive MHC molecules; MHC class I
# Test: UV ligand-exchange ELISA (anti-b2m); +++ = exchange yield >=50
# Excerpt: Candidate peptides for T cell based therapies according to the present invention were further tested for their MHC binding capacity (affinity). The individual peptide-MHC complexes were produced by UV-ligand exchange, where a UV-sensitive peptide is cleaved upon UV-irradiation, and exchanged with the peptide of interest as analyzed. Only peptide candidates that can effectively bind and stabilize the peptide-receptive MHC molecules prevent dissociation of the MHC complexes. To determine the yield of the exchange reaction, an ELISA was performed based on the detection of the light chain (β2m) of stabilized MHC complexes. The assay was performed as generally described in Rodenko et al. (Rodenko et al., 2006).
# 96 well MAXISorp plates (NUNC) were coated over night with 2 ug/ml streptavidin in PBS at room temperature, washed 4× and blocked for 1 h at 37° C. in 2% BSA containing blocking buffer. Refolded HLA-A*02:01/MLA-001 monomers served as standards, covering the range of 15-500 ng/ml. Peptide-MHC monomers of the UV-exchange reaction were diluted 100 fold in blocking buffer. Samples were incubated for 1 h at 37° C., washed four times, incubated with 2 ug/ml HRP conjugated anti-β2m for 1 h at 37° C., washed again and detected with TMB solution that is stopped with […]. Absorption was measured at 450 nm. Candidate peptides that show a high exchange yield (preferably higher than 50%, most preferred higher than 75%) are generally preferred for a generation and production of antibodies or fragments thereof, and/or T cell receptors or fragments thereof, as they show sufficient avidity to the MHC molecules and prevent dissociation of the MHC complexes.
row,peptide exchange yield [%],Binder
1,50 to 75,B1
2,50 to 75,B2
3,50 to 75,B3
4,50 to 75,B4
5,50 to 75,B5
6,50 to 75,B6
7,50 to 75,B7
8,50 to 75,B8
9,50 to 75,B9
10,50 to 75,B10
11,50 to 75,B11
12,50 to 75,B12
13,50 to 75,B13
14,50 to 75,B14
15,50 to 75,B15
16,50 to 75,B16
17,50 to 75,B17
18,50 to 75,B18
19,50 to 75,B19
20,50 to 75,B20
21,50 to 75,B21
22,50 to 75,B22
23,50 to 75,B23

row,peptide exchange yield [%],Binder
1,50 to 75,B24
2,50 to 75,B25
3,50 to 75,B26
4,50 to 75,B27
5,50 to 75,B28
6,50 to 75,B29
7,50 to 75,B30
8,50 to 75,B31
9,50 to 75,B32
10,50 to 75,B33
11,50 to 75,B34
12,50 to 75,B35
13,50 to 75,B36
14,50 to 75,B37
15,50 to 75,B38
16,50 to 75,B39
17,50 to 75,B40
18,50 to 75,B41
19,50 to 75,B42
20,50 to 75,B43
21,50 to 75,B44
22,50 to 75,B45
23,50 to 75,B46

row,peptide exchange yield [%],Binder
1,50 to 75,B47
2,50 to 75,B48
3,50 to 75,B49
4,50 to 75,B50
5,50 to 75,B51
6,50 to 75,B52
7,50 to 75,B53
8,50 to 75,B54
9,50 to 75,B55
10,50 to 75,B56
11,50 to 75,B57
12,50 to 75,B58
13,50 to 75,B59
14,50 to 75,B60
15,50 to 75,B61
16,50 to 75,B62
17,50 to 75,B63
18,50 to 75,B64
19,50 to 75,B65
20,50 to 75,B66
21,50 to 75,B67
